Experimental data: the supplement of paper PMC9732359
± gives the uncertainty stated by the source.

Assay: protein stability index of a GFP-peptide fusion (yeast GPS) (PSI 1-4); higher = more stable; sorted into four equal gates, so the index is relative within each strain
Procedure, shortened: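 Sequencing reads from sorted gates were used to score each peptide. The library consisted of tiled 17-residue yeast protein peptides fused downstream of GFP on a Cherry-expressing plasmid, pooled and carried in yeast. Mid-log cultures in leucine-free medium were split into four equal gates by GFP/Cherry ratio, and each gate's plasmids were PCR-amplified and Illumina-sequenced. The protein stability index adds up, over all gates, the read frequency multiplied by the gate number.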

Sequence	protein stability index (doa10∆)	protein stability index (pdr5∆)	protein stability index (san1∆)	protein stability index (ubr1∆)
CRVCSSHTGLVRKYDLN [RPS29B]	2.56 ± 0.058	2.33 ± 0.059	2.38 ± 0.079	1.94 ± 0.047
CSDFVKILNLEKPLILA [NUT1]	2.01 ± 0.097	1.39 ± 0.064	1.34 ± 0.17	1.08 ± 0.071
CSHIFTSDQKNKRTQFS [RPB9]	2.52 ± 0.058	2.72 ± 0.052	2.47 ± 0.068	2.53 ± 0.043
CVEWRLPEIAKEIYTTL [YJR042W/NUP85]	1.4 ± 0.075	1.46 ± 0.071	1.52 ± 0.11	1.8 ± 0.066
CVKLTVRSLLEVVQTGA [PRE6]	2.44 ± 0.3			2.27 ± 0.29
DALRRGMLAMASLHSKE [MED4]	1.87 ± 0.15	2.23 ± 0.15	2.24 ± 0.17	2.05 ± 0.17
DAPFNKVVLKALFLSKI [RPL18A]	1.55 ± 0.1	1.56 ± 0.074	1.25 ± 0.13	1.32 ± 0.067
DARGVIGVIAGGGRVDK [RPL2A]	3.18 ± 0.093	3.11 ± 0.11	3.06 ± 0.11	2.86 ± 0.071
DASPAPSNESCSPWSLQ [SRB5]	2.72 ± 0.071	2.43 ± 0.052	2.86 ± 0.046	2.33 ± 0.033
DASPDSLEALIDLCHDF [YCS4]	2.81 ± 0.055	2.9 ± 0.047	2.86 ± 0.054	2.86 ± 0.041
DAVLKIFSFHQDSIFQR [SRB8]	3.12 ± 0.11	2.79 ± 0.12	3.04 ± 0.077	2.77 ± 0.057
DDDDDEDEEEEEEVTDQ [QCR6]	3.02 ± 0.061	3.73 ± 0.22	3.4 ± 0.047	3.4 ± 0.12
DDEPTTPAELVGKFLGY [FAS1]	3.51 ± 0.13	3.34 ± 0.14	3.16 ± 0.08	3.2 ± 0.12
DDFEEDEDEEDDDDYNA [RPC31]		3.31 ± 0.12	3.2 ± 0.09	3.46 ± 0.29
DDFTDAIQFVKENELLF [YCS4]	2.1 ± 0.082	2.04 ± 0.061	2.58 ± 0.16	1.92 ± 0.07
DDLQKFNGIENQSAYEW [ISW2]	3.2 ± 0.21	3.23 ± 0.21	3.29 ± 0.1	3.32 ± 0.14
DDNEMTRDDLLTILMRS [RRI2]	2.44 ± 0.2	2.66 ± 0.19		
DDNNNNNNNNNNNNSTR [GRR1]	2.95 ± 0.045	3.02 ± 0.042	2.95 ± 0.041	3.03 ± 0.054
DDRVDKKFVSQIQKNVD [POP3]	3.22 ± 0.073	3.44 ± 0.12	3.29 ± 0.064	3.44 ± 0.051
DDYDYVMYGTAYKFEEV [RPB8]	2.55 ± 0.041	2.89 ± 0.048	2.95 ± 0.055	2.72 ± 0.051
DDYSNLKREERQGLIHQ [SMC3]	2.21 ± 0.2	2.6 ± 0.1	1.96 ± 0.21	2.7 ± 0.11
DEDLLDTQTFSVLLQQL [YGL172W/NUP49]	2.93 ± 0.059	2.81 ± 0.063	1.72 ± 0.11	2.57 ± 0.045
DEELVSHFVSAVSTIAS [RPP0]	3.73 ± 0.21	3.12 ± 0.28	2.76 ± 0.18	2.03 ± 0.2
DEFIKTHEDLPKEVDGL [IRR1]	3.2 ± 0.081	3.29 ± 0.094	3.04 ± 0.078	3.21 ± 0.067
DEFKDITKEVTQVNILK [YIL149C/MLP2]	3.14 ± 0.082	3.2 ± 0.075	2.67 ± 0.14	3.3 ± 0.057
DEGGAKSLLLNTLNIDN [BRN1]	3.19 ± 0.077	3.16 ± 0.097	3.1 ± 0.083	3.38 ± 0.075
DEIKAQRKEIKDRISSC [SMC4]	3 ± 0.062	3.03 ± 0.054	3.13 ± 0.061	3.07 ± 0.053

Sequence	protein stability index (doa10∆)	protein stability index (pdr5∆)	protein stability index (san1∆)	protein stability index (ubr1∆)
DENGTNSAIANEQEEKS [RPC37]	2.65 ± 0.083	2.83 ± 0.1	2.74 ± 0.047	3.07 ± 0.051
DEQDDDNVNSTTGSIFE [BRN1]	2.88 ± 0.16	2.92 ± 0.13	2.7 ± 0.15	2.85 ± 0.066
DFDDFLKLGLVEYLDVN [RET1]	3.01 ± 0.092	3.07 ± 0.1	3 ± 0.11	3.06 ± 0.1
DFHFSTDRITRLFIKPG [BRN1]	2.33 ± 0.058	2.6 ± 0.046	2.16 ± 0.089	2.67 ± 0.048
DFITGSYLISHKDSFYD [RPO31]	2.02 ± 0.066	1.94 ± 0.049	2.13 ± 0.064	1.83 ± 0.045
DFKEVEDFLHFIVAEYI [SRB4]	2.73 ± 0.071	3.22 ± 0.11	3.13 ± 0.056	3.14 ± 0.056
DFKTDVDEPMTSAVELG [YJL039C/NUP192]	2.17 ± 0.073	2.28 ± 0.068	2.54 ± 0.13	2.85 ± 0.06
DFTLPEDFAPLLAEEEE [PRP8]	3.42 ± 0.19	3.64 ± 0.22	3.23 ± 0.11	3.2 ± 0.084
DFTQEDELRKQELISKA [ISW2]	3.11 ± 0.12	3.1 ± 0.076	3.03 ± 0.083	3.09 ± 0.09
DFYTRHHFTCEITGTSC [ITC1]	1.43 ± 0.042	1.64 ± 0.045	1.51 ± 0.094	1.65 ± 0.045
DGDASKPAFSFGAKPDE [YJL041W/NSP1]	3.32 ± 0.058	3.25 ± 0.058	3.15 ± 0.036	3.42 ± 0.043
DGHYIEENSQGNILDFN [REC8]	3.23 ± 0.11	2.67 ± 0.098	2.89 ± 0.065	2.81 ± 0.1
DHLIIEPEEEKSKREEE [ARP9]	3.15 ± 0.27			3.2 ± 0.17
DHNALPQRCTFAFEAID [POP1]	2.36 ± 0.09	2.84 ± 0.077	2.79 ± 0.089	3.09 ± 0.057
DIAGQRDDALVVETITS [RRP42]	3.1 ± 0.11	3.28 ± 0.094	2.27 ± 0.27	2.56 ± 0.092
DIDLETYSFIDNDRFNV [YML103C/NUP188]	2.47 ± 0.064	2.54 ± 0.056	2.46 ± 0.081	2.21 ± 0.042
DIEAGDDDDNNESSSNT [DIS3]	3.51 ± 0.26	3.4 ± 0.2	3.05 ± 0.11	2.79 ± 0.12
DIFVYLTYDKDLTNNPQ [MTR3]	2.1 ± 0.05	1.98 ± 0.073	2.35 ± 0.1	2.28 ± 0.065
DIGSDPTLPRSDRECPK [RPB9]	2.7 ± 0.069	2.94 ± 0.078	2.85 ± 0.076	3.14 ± 0.082
DILLCYQKLFSQFINDH [SRB8]	2.37 ± 0.034	2.64 ± 0.037	2.64 ± 0.042	1.84 ± 0.034
DILLNERVWNICLYSSF [AAR2]	1.91 ± 0.066	1.68 ± 0.064	1.55 ± 0.14	1.84 ± 0.04
DINVESLTQSVCDLALR [PUP2]	1.52 ± 0.1	1.91 ± 0.067	1.67 ± 0.18	1.93 ± 0.037
DIPLAKALDNACGAFIN [CDC53]	2.63 ± 0.091	3.1 ± 0.067	2.8 ± 0.078	2.87 ± 0.072
DITGDIRNEGSDAEEEE [ISW2]	2.83 ± 0.16	3.1 ± 0.1	3.05 ± 0.089	2.91 ± 0.068
DITVHGEQIIVHPVNER [RRP45]	2.23 ± 0.078	2.15 ± 0.1	1.82 ± 0.14	1.9 ± 0.083
DKDNPVDSRNETDHKTN [SRB4]	3.38 ± 0.14	2.85 ± 0.15	2.88 ± 0.086	3.3 ± 0.18
